Laboratory results reported in a protein production outcome set (Wang et al. 2014).

Assay: label from the status in PepcDB records
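Note: failed if final PepcDB status was selected cloned or expressed and not failed if soluble or beyond.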

Sequence	protein production
MTHIQLDFSKTLEFFGEHELKQQQEIVKSIHKTIHEGTGAGSDFLGWVDLPVDYDKEEFSRIVEASKRIKENSDVLVVIGIGGSYLGARAAIEMLTSSFRNSNEYPEIVFVGNHLSSTYTKELVDYLADKDFSVNVISKSGTTTEPAVAFRLFKQLVEERYGKEEAQKRIFATTDKEKGALKQLATNEGYETFIVPDDVGGRYSVLTAVGLLPIATAGINIEAMMIGAAKAREELSSDKLEENIAYQYATIRNILYAKGYTTEMLINYEPSMQYFNEWWKQLFGESEGKDFKGIYPSSANYTTDLHSLGQYVQEGRRFLFETVVKVNHPKYDITIEKDSDDLDGLNYLAGKTIDEVNTKAFEGTLLAHTDGGVPNMVVNIPQLDEETFGYVVYFFELACAMSGYQLGVNPFNQPGVEAYKQNMFALLGKPGFEDLKKELEERL	failed
MTHNIHDNISQWMKSNEETPIVMSSRIRLARNLENHVHPLMYATENDGFRVINEVQDALPNFELMRLDQMDQQSKMKMVAKHLISPELIKQPAAAVLVNDDESLSVMINEEDHIRIQAMGTDTTLQALYNQASSIDDELDRSLDISYDEQLGYLTTCPTNIGTGMRASVMLHLPGLSIMKRMTRIAQTINRFGYTIRGIYGEGSQVYGHTYQVSNQLTLGKSELEIIETLTEVVNQIIHEEKQIRQKLDTYNQLETQDRVFRSLGILQNCRMITMEEASYRLSEVKLGIDLNYIELQNFKFNELMVAIQSPFLLDEEDDKSVKEKRADILREHIK	failed
MTHSQWQSLPRRGAYVAAINGTLGGGCAGLITASVTVVWLHAWRYWPAVLGVTAVIALLGAWLAVKRHRLTQWQLDQHGLALQRGHLWQSDTRVPISRVQHVDLRRGPIERATGLTTLVVHTAGSRLNAVALSGLDQDDAERLRDRLARQLDHDDDAL	failed
MTHTVIVPGVGGSEQHHWQSWLQRQLSSCSRVEQNDWNLPVLSDWVSHLISHVQQLEQPVQIVAHSFGCLTTLAALEQHPQLINQVKHITLVAPANPERFGEAGFARDSQTDYRAYFHQLKPSIKTQLIISENDPWLDFEEALQLAKSWQVRATNLGKVGHINVASGFGPFPEIFDYMLP	failed
MTHVEDDKEFKEKPLVQVLSDDDSEVKEAKDGGGEEVTGGDGEGEANEEDLGTEYLVRPVGEVEDEDDASDFDPEENGLDEEEGDEEIEEDDVDEDISLSAGKSEPLSKRKRVAKDHSEQGDVTGDNIRPSKR	failed
MTIAEIRKFAQTTQKFVEAENLFEHGNVVLPKKYLNKARGMAEVLYNSQVIKVSFTAKDGELTCKCSCLANVDNCVHIVAVLLKYHQMLVESKRSFNLAEAFHLDCDQAEMLIENLSLEIIAGGNFKLGFTINLDKHNPQPSVLRFYCCDATFVYFLHLENDTLHSVELSKFKPEERATLLFFDKLCKQFTVGYDRNSLLFPLAGFLKELQANTEPTIFVFNDDKIDNILFLRISKKHHGLNHVCGFSGKKVFDFVTYKQKEKQIVLRSAYLSKFTDFKFPYTINIYKLQFGEPLFFYFLIQLKRDGFKNFYFQSEDSIVKEKEYLPKLYFKVEYDPVKNKFVSDAFFKYKNHFNKGTTTVYPHRYYMAKKSDRGGFNRLLFYEEAVENFYQDQFDLGYFRKFEHLPIQDKNQIEAFKAALDDLMPVDLAEVSLSDNLLHQKPLHFALSDLEAVAVDDKQIKLSFAPSAVELKLIKRILSAYHKGNVVCIDQESWYDLKQPAAKELIQFNQFDLRNATSDGNHIYLPKYYLFEVAKIFSQYLDIKNLFDVPTIKKIEDQNNNVFDLSLEHKKITSLRNYQQEGVKIRGLEENKFGGILADEMGLGKTVQVIFALLDSYLKNHVNLPSLIIVPASLLLNKSEFEKFAPQIKVKVANIPSKERGELYEKLTNEILIVSFNVLRSDVKLITKQRFHYVVIDEAQGIKNDSSSITKAAKKVKGNFCLALTGTPIENRLLDLSCFDFVLPSFLGNKKQFTDQFEKEKTDQSFHLLMQRTSPFILRRTKSKVLKELPNKITTDIYVELNPMHQKLYEEERDRGLEEIKQIQDKSSFNILTLILKLRHLCSLPKNSQGILENSAKKEAALEIIHEAIENQRKIILFTQFIDVIDHFKDTFKEQGIEYFIFDGRKSPKSRHSIIEKFNNAKNPCVLLASLKAGGVGINLTAAEVVIHFDVWNTAVENQATDRAHRIGQKKTVQVYRIIAKNTIEERVCQVQAEKQELVSKTLVEDVNFFESLTNEELLRLFE	failed
MTIAQEPTALNFECETGNYHTFCPISCVAWLYQKIEDSFFLVIGTKTCGYFLQNAMGVMIFAEPRYAMAELEEGDISAQLNDYAELKRLCEQIKRDRNPSVIVWIGTCTTEIIKMDLEGLAPKLEGEIGIPIVVARANGLDYAFTQGEDTVLAAMAHRCPDKAPVAEAEKNLEHHHHHH	not failed
MTIDDMSLVVGMYGNYEVTKTGNLVGILEVSGINLDLLNETEQQDVFEDYGAFLMSTLGEGVDDTLQFLEPTIPVNMTTYLNGLKRRYLALQKDHPEQQFKIQLIASYLDHFTKVQESKNMTTKQHLLIVKVPIKDKSAESLNLAVAHLDEKIEQVKRDIENALTDFDVTAKILTSQEVQEILKNLINFNGLEHHHHHH	not failed
MTIFEKNVIEFVTVAAEFCAFLERAEHMKRKAFVDTSLKILPLLYLKASLLPKCETIGDEAPETYVTEEIYEILRINLAGLMGEKDDYLDVFVQDMVYSDQPIKKSVSEDLADIYQDIKDFIFVFQLGLNETMNDSLAICQENFGLLWGQKLVNTLRALHDVKYLEHHHHHH	failed
MTIHDNTLFSADERSRFLSSYASLIRTLAPDRQLVKKVRSLLSRFTELGCFDRDKNGMHGLLRNMEVARIASCEIGLGIEAIGALLFYRPAMKGLTRPEEIAELMGEDVARLIDLLLKTSEIYMRNTAINTANFEHFLLSIAEDIRVVLLIIADRSYLLRQAKDMVCAEERTALAAEVSYLYAPLAHRLGLYAIKSEMEDLCLKYTDRQTFDFIKRKLGETKRSRDAYIEAFIAPLRRRLDEALPNIPYEMKGRTKSINSIRNKLRQQGIEFESIYDLFAIRIILDVPVKDEKAACWHVYSIITDMYQPNPQRMKDWISIPKSNGYESLHVTVMGPQNRWVEVQIRSRRMDEVAERGLAAHWKYKGIKSESGLDEFLTSVRETLEARDHSSDDSAETVKNFKMNLFTDEIYAFTPTGELIKLPQGASVLDFAFAIHSRIGCQAVGANVNGKNVPLKHKLENGDSVSIITSAQQTPKKDWLSYVVSSKARNKIKQQLRLQMESSIGVVKELLNRRLKNRKLPFEEAVFTRVVRRKGFKHLTDFYMEIAADRLDVQEVLELYSHELEEEQRRDAGSGAARRSADTFVAHPPKEEEIVKGGKSDVLVIDNNMTGVEYSFGKCCNPIYGDSVFGFVSNSGIKIHRTDCPNAPDMFSRYGYRIIEARWSGKGSTGYEATLHVIGQDNLAIVTNITSVINKEPGVSLRAYSINSKDNLFEGVFTVEVPDTSTLSILLRKIRATHGVKSAERH	failed
MTIKIALLGFGTVAKGIPYLLKENQHKLLSLEGEDIVIDKVLVRDNESRQRFINQGFTYNFVTEINTILQDSQIDIVVELMGGIEPAKTYLSQALGFGKHIVTANKDLIALHGKELMDLADARGLALFYEGAVAGGIPILRTLSHSFASDKMTRLLGILNGTSNFMLTKMFEEGWSYEQALKKAQELGYAESDPTNDVEGIDTAYKATILSQFGFGMPIDFDDVNYKGISSIRSEDVEVAQEMGFAIKLVADLRETPTGISVDVSPTLISQKHPLAAVNHVMNAVFIESIGIGQSLFYGPGAGQNPTATSVLADIIDISRSIRSQIKIKPMNTYHCPCRLSMQSDIFNEYYLAISLRNAEDSDTLGRYFEQENIGLKNVIEKALGDKQQEIYVLTDEVSQEKITQFIEEFPESGVIQLINVFKVIGG	failed
MTILENIRGPRDLKALSEAELGELSDEIRDFLVHAVARTGGHLGPNLGVVELTVALHRVFESPDDRILWDTGHQSYVHKLLTGRQDFSKLRSKGGLSGYPSREESAHDVIENSHASTVLGWADGLAKARQVQGERSHVVAVIGDGALTGGMAWEALNNIAAARDRPLIIVVNDNERSYAPTIGGLANHLATLRTTDGYERALAWGKDVLQRTPVVGHTVYEALHGAKKGFKDAFAPQGLFEDLGLKYLGPIDGHDIGAVESALRRAKRFHGPVLVHCLTEKGRGYEPALRDEEDHFHTVGVMDPLTCEPLGPAGGPSWTSVFGEEIVRIGEERADVVAITAAMLHPVGLAPFAERFPDRVWDVGIAEQHAAVSAAGLATGGLHPVVAVYATFLNRAFDQLLMDVALHRCGVTFVLDRAGVTGVDGASHNGMWDMSVLQVVPGLRIAAPRDADQLRTQLREAVAVDDAPTLLRFPKESVGPAVPAVDRIGGLDVLHTADRSEVLLVAVGVMAPVCLGAAELLEARGIGCTVVDPRWVKPVDPALAPLAARHRLVAVVEDNSRAAGVGSAVALALGDAEVDVPVRRFGIPEQFLAHAKRAEVLADIGLTPVDVAGRIAASLALAEPAGDRAGGPAVEQPGDGRMSGDGRIVMPAQGEN	failed
